Assay results as given in paper PMC8617373 (Cell Research, 2021).

B1: KREMEN1 expressed on HEK293E cells (receptor)
chain: ARPAPSPGLGPECFTANGADYRGTQNWTALQGGKPCLFWNETFQHPYNTLKYPNGEGGLGEHNYCRNPDGDVSPWCYVAEHEDGVYWKYCEIPACQMPGNLGCYKDHGNPPPLTGTSKTSNKLTIQTCISFCRSQRFKFAGMESGYACFCGNNPDYWKYGEAASTECNSVCFGDHTQPCGGDGRIILFDTLVGACGGNYSAMSSVVYSPDFPDTYATGRVCYWTIRVPGASHIHFSFPLFDIRDSADMVELLDGYTHRVLARFHGRSRPPLSFNVSLDFVILYFFSDRINQAQGFAVLYQAVKEELPQERPAVNQTVAEVITEQANLSVSAARSSKVLYVITTSPSHPPQTVPGSNSWAPPMGAGSHRVEGWTVYGLATLLILTVTAIVAKILLHVTFKSHRVPASGDLRDCHQPGTSGEIWSIFYKPSTSISIFKKKLKGQSQQDDRNPLVSD
B2: ASGR1 expressed on HEK293E cells (receptor)
chain: MTKEYQDLQHLDNEESDHHQLRKGPPPPQPLLQRLCSGPRLLLLSLGLSLLLLVVVCVIGSQNSQLQEELRGLRETFSNFTASTEAQVKGLSTQGGNVGRKMKSLESQLEKQQKDLSEDHSSLLLHVKQFVSDLRSLSCQMAALQGNGSERTCCPVNWVEHERSCYWFSRSGKAWADADNYCRLEDAHLVVVTSWEEQKFVQHHIGPVNTWMGLHDQNGPWKWVDGTDYETGFKNWRPEQPDDWYGHGLGGGEDCAHFTDDGRWNDDVCQRPYRWVCETELDKASQEPPLL

Molecular target: SARS-CoV-2 S-ECD-hFc (extracellular domain of the spike (S) protein, hFc-tagged) (SARS-CoV-2, UniProt P0DTC2 14-1213)
Experiment: flow cytometry on cells

| Binder | Kd [nM] |
| --- | --- |
| B1 | 19.3 |
| B2 | 94.8 |
